The series in a line: label from the status in PepcDB records.
Take “MYLISELAVKAGLSRTTLLYYEKLGLIRGQRLDNGYRYYNESDLQQLFLIQQLQSAGLSLKECEECLQAKLDRTLLERRLSQLDDEIEKKVRARELLLALLGERPQRELHHSLSKHAPNAYLSWLNTQGYSEKEALRLKWLSKDMNEHDIYMQDFMTVFASLQHWGPGSEQDSLKAISLMSMQNMQHILDIGCETGLSTLLLAENSSAHITAVDNEPIAIEQLEKQRQHSPWKEQISPVLGSMTALPFAAKSFDAIWAEGCVYIMGMENALKQWKPFLADNAILMVSDLVWLTENPKPEAQEFWQSEYPDIQSIPSRIKLFKKLGYEVMEHFSLGIDAWQNYWLPLQNRVQELKLRLTNSQALSDIEKEIAIYERSAAKDFTYQYFVLKLNH”: the protein production entry is “failed”. The entry for “MASGQFVNKLQEEVICPICLDILQKPVTIDCGHNFCLKCITQIGETSCGFFKCPLCKTSVRKNAIR” is “not failed”. As for “GSAHSDEQSSGTLSSPGQSDILLTAAQGTVRKAGALAVKNFLVHKKNKKVESATRRKWKHYWVSLKGCTLFFYESDGRSGIDHNSIPKHAVWVENSIVQAVPEHPKKDFVFCLSNSLGDAFLFQTTSQTELENWITAIHSACATAVAR”, the protein production result was “failed”. The value for “MEREEIIERFLKFFREYAEEGEEPLYMGKIKDLLTITPKRSIVINWMHLNSYDPELAEEVIENPEECILAAEDAIQIILKEDFLREDVPKIHARFHNLPKTLMVKEVGAEHINKLIQVEGVVTRVTEIKPFVSVAVFVCKDCGHEMVVPQKPYEGFVAVKKCEQCGSKNVQLDVEKSKFVNFQMFRIQDRPESLRGGQMPRFIDGILLDDIVDTAMPGDRVIVVGILRVIQEKREKVPTFKKVIEVNHIEPISKELEELEISPEDEQKIRELAKRKDIVSAIVDSIAPAIYGYKEVKKGIALALFGGVSRTLPDGTRLRGDIHVLLVGDPGVAKCVDYDTEVLLGDGRKRKIGEIVEEAIKKAEKEGKLGRVDDGFYAPINLELYALDVRTLKVRKVKADIAWKRTTPEKMLRIRTKRGREIRVTPTHPFFTLEEGRIKTKKAYELKVGEKIATPREEAPEAEIFWDEVVEIEEYKPNNSWVYDLQVPEHHNFIANGIFVHNSQLLRYVANLAPRAIYTSGKSSSAAGLCVAPDTLINTDNGRVEIGKFVEEWMKEVGEISEEGISYAPCFRKVETFKDGKIVESPIRRVWKLRAPKKLVRIKTENGRSIALTRETKLLTINDGELSWVEAGEVKVGTYVGTVKSEKDVIPGAGKTIRDVSKLYNMEMEVKDYLTREEVRKAIEKLEEIMNPMNIKIPGVQESYEELLRKLETTNDERVRNETLILLSDVSDAHELAKEKIEKIKEIVNSEVHWEKVTEVGEVDGVEYVYDLTVEGSHNFVANGFIVHNTAAVVRDEFTGGWVLEAGALVLADGGYALIDELDKMSDRDRSVIHEALEQQTISLSKAGITATLNARTTVIAAANPKHGRFNRMKRVSEQIDLPPTLLSRFDLIFVLMDEPDEKVDSEIARHILKVRRGESEVVTPKIPHELLRKYIAYARKNIHPVISEEAMEEIEKYYVKMRRSAKKSSGDEIKPIPITARQLEALIRLSEAHARMRLSPIVTREDAREAIKLMEYTLKQIAVDEAGQLDVTILEVGQSARKLSKVERILDIVEKLERTSEKGAKIDDILEEAAKFGIEKSEAREILEKLLEKGQIYMPENGYYKTV” was “failed”. The entry for “QRISLEIMTLQPRCEDVETAEGVALTVTGVAQVKIMTEKELLAVACEQFLGKNVQDIKNVVLQTLEGHLRSILGTLTVEQIYQDRDQFAKLVREVAAPDVGRMGIEILSFTIKDVYDKVDYLSSLGKTQT” is “not failed”.

“MSLRRLLAVFAVVGMVVIAGCAGGIDNGEPATSGVTEQATTTVATTETAAPTGELVVHQLNVGQGSSTLVVGPDGETLLIDTGDWTDDGEDVIAYLESQGVTRIDHLVTSHPDADHIGGHAAVIEHFETNGDGVGAVYDPGIASSSATYEEYLDAVEAHNVPLYRTQAGDSIPMSGATAQILAPPEGYLANEDRNENSIVVHVQFGASSFLLPGDGETASEEYLVDTYGDRLNSTVLVVGHHGSRSSTSAAFLEAVSPRVAVISSAYESQYGHPHEAVLERLAARSIPTYWTATHGTITFTSNGSAVTVATQQDAPTTATELRSGDPVEPGTGGGLVDRLVIPTAGSGTTPITDPDGTTEPAETTSTSTAGRLDLVEIHADAAGDDAENLNGEYITVEHTGASSLDLSGWTLADAAGHSYTIPEGTVLEPGDQLTIYTGSGTDTATELYWGQSSPVWNNGGDTISLRDATGTTVIEETY”: the protein production result was “failed”. The entry for “EMVLLPAPQIPLIMKIMKNHTPTWLPGVPTLYEKIVAEATAKGVEIKGIRNSFSGASTLPVRTVEDWENLTGGLLVEGYGLTETSPVLCGNPMNGNRRPGYIGVPFPDTEIRIANPDNLDETMPDGEAGEVLARGPQIFQGYLNKPEATAATFHGDWFRTGDMGVMEEDGFIRLVSRIKEIIITGGFNVYPAEVEEALIAHPDVDDAAVVGRPRKDGSEDVVACIVLKDGAALDPEGLKTHCRKLLTRYKVPRTFYHFEALNKDQLGKVRRREVQQTLLERLGEK” is “failed”.

Take “MTICCPVIALAFALNRKPVSAPTARIAVLARNTSMSFASLGLIDPLLRNLQDLNYQTPTPVQVKAIPAVLGGKDVMAGAQTGTGKTAGFALPLLQRLVQQGPAVSSNRARVLVLVPTRELAEQVLQSFVAYGKGLDLRFLAAYGGVSINPQMMKLRKGVDVLVATPGRLLDLNRQNAVQFDQVETLVLDEADRMLDLGFARELNAVFAALPVQRQTLLFSATFTDDIRTMAASILRSPVNISVSPPNVTGSKIKQWVVTVDKRNKPDLFMHLVAENNWDHALVFVKTRNGVEYLAAMLDEAGYAVDTIHGDKPQPARLRALERFKTGEVQMLVATDVAARGLDIDDLPLVINVDLPIVAQDYVHRIGRTGRAGASGVAVSLVCADEAPQLAAIEALIGQTLRREEEPGFEAEHRVPETSSTGQIIKKPKKPKKPKVPQGGAAATPVAGKKPQPQGGDGKRKGGGAAGKGASVLNGSPFSVQKPRGKGKPAGKAVAGARKPAGKPAGGRGKH”: the protein production entry is reported as “failed”. The value for “MTSGVAPLPGIVSTLSAAAEAVSEALIALDADGGILVVNGAAERVFDRRRDDLIGRSLDVVFGGDFAEAMASNLSAKVDALPPAPGGGRLLRRPGLPPLALHAGFSVTGDHGRPLATIVIRDLSPRADSWLETEERLGGFAASMPGIIFQRVAHRDGSLSYPFLSSGVHAVLGYHPAEMSVALDGCLNAIHWADRESYLRRLRQSAQTLAICSEEFRAITREGAVKWLSGASQPRAMANGDILWDGVLVDVTERKRAELWLEMIMDRAADGIVTINEQGVIESANAAVGTFFGYADRGELIGRRVEILMAEADRRQHTRHMLRYRETGDGALIGAGPRELTGRRRDGTTFALELALSEVRTEGRRIFIAVIRDITQRKETEGALAATRARLQTIADNVPGLVFQRELTAEGVLRFLFVSNGVHEVLGITPEALLADGELFLGAMDPDVRAAFRETLRQSASRLEPMEEDIKLRGRDGEERWLRGWSRPSRREDGSVVWDGVTLDVTDRKRAEDKLTFLAYYDPLTGLGNRSLFIDRFDRARRFAESIQAWVAVLSIGLDRFGMVNATIGHTMGDKVLIAVTRRLQQSLEAGSIVCRAGGDRFLVLLTGLTDRADLREVVATIQDAFVPPIEVEGQQFDIGLTIGGALHPEDGREAETLIMHADAALHRAKGGGGAFQMFTPEMGARAAHLLTIQHKLRRGLERHEFVAYFQPQVDLRSGLITGCEALARWNSPEDGLVPPGKFIGVAEEYGLIDAICGQVLDDSCRWLSTWRARGLPQVPVAVNISGRQFQNARQLVAMVDQALRQSGVDPRLLELELTESSAMSDPENAIAVVNLLRERGVSCAIDDFGTGYSSLSVLKRFPIGKLKIDRSFVMDVTTDPNDAAIVQAIIAMAHALNLRVVAEGVETLDHLAFLREVHCDAVQGFLFARPLPGEDMALMLAGGPPQPNPR” was “failed”. The entry for “EIDYTAYPWFAGNMERQQTDNLLKSHASGTYLIRERPAEAERFAISIKFNDEVKHIKVVEKDNWIHITEAKKFDSLLELVEYYQCHSLKESFKQLDTTLKYPYK” is “failed”; for “EAKAKANTTRSLQALINLQPQQATVITEQGDQQITVEQITLGMKLRIKPGEKVPVDGVVIQGESYIDESMLTGEPVPVLKAQEAQVSAGTLNTDGALIIEATGIGANTMLARIIRMVRTAQSSKPAIAKLADQ” it is “failed”.

(Values after a protein production outcome set (Wang et al. 2014).)
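Note: failed if final PepcDB status was selected cloned or expressed and not failed if soluble or beyond.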
